# Target: Dengue NS1 (NS1-D) (Dengue virus serotype 4, UniProt P09866 775-1126)
# Assay: electrochemical impedance spectroscopy; PBS; 1000 ng/mL NS1-D; dRct 114.1 ± 0.2%; LoD 0.21 ng/mL; PBS or commercial human serum; aptamer immobilized at 4 °C in 0.8 M PB, 1.0 M NaCl, 5 mM MgCl2, 1 mM EDTA, pH 7; aptamer:total thiol 1:250; assay temperature not stated
# Conditions: protein: commercial; chain copies: 2
# Chain of Dengue NS1 (NS1-D) (P09866 775-1126): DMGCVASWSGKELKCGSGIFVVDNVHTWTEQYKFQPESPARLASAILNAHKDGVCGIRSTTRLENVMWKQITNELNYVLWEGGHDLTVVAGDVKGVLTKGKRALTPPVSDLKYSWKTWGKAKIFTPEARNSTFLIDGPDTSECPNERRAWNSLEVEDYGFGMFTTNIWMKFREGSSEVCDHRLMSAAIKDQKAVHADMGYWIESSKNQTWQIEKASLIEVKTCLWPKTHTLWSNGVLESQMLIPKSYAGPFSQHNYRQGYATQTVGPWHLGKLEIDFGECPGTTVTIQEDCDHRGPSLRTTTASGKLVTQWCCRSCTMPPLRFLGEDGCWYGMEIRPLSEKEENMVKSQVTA
binder,measurement,value
"TTTTAGCGGATCCGATGGGTGGGGGGGTGGGTAGGATCCGCG (structured_DNA, 5'-HS-(CH2)6 thiol) [NS1 DNA aptamer]",binding result,binds

# From paper PMC12631472, “Low-Cost Label-Free Electrochemical Aptasensor for Dual Detection of Dengue and Zika Using Fluorine-Doped Tin Oxide Modified with APTES and Gold Nanoparticles”
